Each block holds one binder with its values, some of them ahead of it.
Experiments:
Experiment in all cases: two-hybrid library CCNG1;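 also: natural log of median RNA to DNA barcode read ratio; higher means stronger binding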
4H2588-bN = target: T1, 4H2588-bN
T1 chain: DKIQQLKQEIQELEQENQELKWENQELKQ

4H2692-bN = target: T2, 4H2692-bN
T2 chain: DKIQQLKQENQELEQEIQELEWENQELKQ

4H2717-bN = target: T3, 4H2717-bN
T3 chain: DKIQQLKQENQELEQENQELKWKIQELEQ

4H2839-bN = target: T4, 4H2839-bN
T4 chain: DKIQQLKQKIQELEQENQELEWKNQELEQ

4H2915-bN = target: T5, 4H2915-bN
T5 chain: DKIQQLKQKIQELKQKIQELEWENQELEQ

4H3057-bN = target: T6, 4H3057-bN
T6 chain: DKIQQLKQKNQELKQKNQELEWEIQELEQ

4H319-bN = target: T7, 4H319-bN
T7 chain: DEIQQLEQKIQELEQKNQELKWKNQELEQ

4H3277-bN = target: T8, 4H3277-bN
T8 chain: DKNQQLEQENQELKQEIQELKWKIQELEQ

4H348-bN = target: T9, 4H348-bN
T9 chain: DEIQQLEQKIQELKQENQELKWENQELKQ

4H40-bN = target: T10, 4H40-bN
T10 chain: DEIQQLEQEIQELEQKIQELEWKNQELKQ

4H477-bN = target: T11, 4H477-bN
T11 chain: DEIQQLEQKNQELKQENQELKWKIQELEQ

4H492-bN = target: T12, 4H492-bN
T12 chain: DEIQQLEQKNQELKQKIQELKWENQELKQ

4H741-bN = target: T13, 4H741-bN
T13 chain: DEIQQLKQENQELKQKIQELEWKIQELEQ

4H2697-bA = target: T14, 4H2697-bA
T14 chain: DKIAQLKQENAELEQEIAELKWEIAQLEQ

4H3041-bH = target: T15, 4H3041-bH
T15 chain: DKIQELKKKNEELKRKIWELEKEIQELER

4H3189-bA = target: T16, 4H3189-bA
T16 chain: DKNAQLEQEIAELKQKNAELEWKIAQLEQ

4H331-bA = target: T17, 4H331-bA
T17 chain: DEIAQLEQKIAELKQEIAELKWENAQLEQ

4H3606-bA = target: T18, 4H3606-bA
T18 chain: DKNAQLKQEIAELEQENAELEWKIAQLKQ

4H370-bA = target: T19, 4H370-bA
T19 chain: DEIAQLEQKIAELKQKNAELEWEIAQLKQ

4H3782-bA = target: T20, 4H3782-bA
T20 chain: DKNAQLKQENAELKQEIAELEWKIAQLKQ

4H3843-bA = target: T21, 4H3843-bA
T21 chain: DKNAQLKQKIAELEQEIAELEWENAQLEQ

4H4001-bA = target: T22, 4H4001-bA
T22 chain: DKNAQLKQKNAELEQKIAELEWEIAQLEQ

4H462-bA = target: T23, 4H462-bA
T23 chain: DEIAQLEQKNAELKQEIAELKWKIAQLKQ

4H568-bA = target: T24, 4H568-bA
T24 chain: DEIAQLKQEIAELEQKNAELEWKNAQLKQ

4H607-bA = target: T25, 4H607-bA
T25 chain: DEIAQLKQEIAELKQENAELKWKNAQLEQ

4H687-bA = target: T26, 4H687-bA
T26 chain: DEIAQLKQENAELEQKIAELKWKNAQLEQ

4H72-bA = target: T27, 4H72-bA
T27 chain: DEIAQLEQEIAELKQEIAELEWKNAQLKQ

4H797-bA = target: T28, 4H797-bA
T28 chain: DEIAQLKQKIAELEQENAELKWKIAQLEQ

4H883-bA = target: T29, 4H883-bA
T29 chain: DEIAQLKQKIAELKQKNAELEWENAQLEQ

4H918-bA = target: T30, 4H918-bA
T30 chain: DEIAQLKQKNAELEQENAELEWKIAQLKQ

4H953-bA = target: T31, 4H953-bA
T31 chain: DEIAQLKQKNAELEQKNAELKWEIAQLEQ

4H967-bA = target: T32, 4H967-bA
T32 chain: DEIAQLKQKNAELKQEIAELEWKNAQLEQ

interaction score (4H2588-bN): 0.138
interaction score (4H2692-bN): 0.0187
interaction score (4H2717-bN): 0.223
interaction score (4H2839-bN): -1.16
interaction score (4H2915-bN): 0.795
interaction score (4H3057-bN): -1.34
interaction score (4H319-bN): -0.863
interaction score (4H3277-bN): -0.49
interaction score (4H348-bN): 1.49
interaction score (4H40-bN): -0.648
interaction score (4H477-bN): -1.95
interaction score (4H492-bN): -0.343
interaction score (4H741-bN): 0.0254
Binder: DKIQQLKQEIQELEQENQELKWENQELKQ [4H2588-bN]

interaction score (4H2697-bA): -0.377
interaction score (4H3041-bH): 1.02
interaction score (4H3189-bA): -1.34
interaction score (4H331-bA): -1.52
interaction score (4H3606-bA): -1.7
interaction score (4H370-bA): -1.13
interaction score (4H3782-bA): 0.993
interaction score (4H3843-bA): -0.367
interaction score (4H4001-bA): -0.951
interaction score (4H462-bA): 2.04
interaction score (4H568-bA): -1.82
interaction score (4H607-bA): -1.17
interaction score (4H687-bA): -1.08
interaction score (4H72-bA): -1.03
interaction score (4H797-bA): -0.734
interaction score (4H883-bA): -1.53
interaction score (4H918-bA): -0.926
interaction score (4H953-bA): -1.44
interaction score (4H967-bA): -0.359
Binder: DKIAQLKQENAELEQEIAELKWEIAQLEQ [4H2697-bA]
